Reference: publication PMC6133388

Target: GST-tagged NbSAMS2 (GST-NbSAMS2) (N. benthamiana)

GST-C4 (natural protein)
NbSAMS2 enzymatic activity in vitro (conversion of 35S-Met to 35S-SAM, TLC) after pre-incubation with varying amounts of GST-C4; reduction of activity at an 8:1 molar ratio of C4:NbSAMS2: 80%
